Data taken from IntAct's records for PubMed 22265419.

B1: WASH complex subunit homolog 3 (Caenorhabditis elegans), O01901 (parent)
chain: MNASSRTKPAIDLNKVPPIDHHRTAVTFNCLIMKMTEMLNNFGNKMEDILEKAEQSLDTADRKLRLMESKLAGMSLEDKSTTATPSSAPEIDEIHESNPSSSQIVEETVEEKPEEHTTTVLIKDDPAYSKYFKMLKLGVLEAGVIQKMKSEGVDPSILKRGDEPSRPQAQTSRNYESSGESTASFSDSD
partner: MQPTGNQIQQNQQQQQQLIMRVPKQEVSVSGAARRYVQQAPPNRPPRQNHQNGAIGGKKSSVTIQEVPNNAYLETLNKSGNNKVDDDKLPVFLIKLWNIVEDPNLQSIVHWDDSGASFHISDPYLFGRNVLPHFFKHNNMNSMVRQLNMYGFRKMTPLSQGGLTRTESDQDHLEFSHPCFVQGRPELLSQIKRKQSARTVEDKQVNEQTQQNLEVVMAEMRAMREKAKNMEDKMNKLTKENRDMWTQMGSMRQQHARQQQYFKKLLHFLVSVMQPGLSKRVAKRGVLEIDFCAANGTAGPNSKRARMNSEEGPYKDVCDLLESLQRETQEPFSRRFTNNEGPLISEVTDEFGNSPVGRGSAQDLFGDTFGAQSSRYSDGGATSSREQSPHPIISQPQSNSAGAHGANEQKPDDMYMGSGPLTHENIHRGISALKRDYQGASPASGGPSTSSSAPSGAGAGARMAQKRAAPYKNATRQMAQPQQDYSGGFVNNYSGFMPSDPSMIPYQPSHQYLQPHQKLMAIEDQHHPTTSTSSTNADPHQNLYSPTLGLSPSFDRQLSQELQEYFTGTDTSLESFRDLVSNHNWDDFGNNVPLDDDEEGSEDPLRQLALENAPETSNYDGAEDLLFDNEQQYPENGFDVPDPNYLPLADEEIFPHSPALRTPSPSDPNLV

Variants of: B1
Conditions: with hsf1_caeel hsf-1, G5EFT5

Variant	effect of a mutation on the interaction
T182A	increasing interaction
